T1: human sclerostin, mature form (signal peptide removed) (human, UniProt Q9BQB4 24-213)
T1 construct: 190 amino acid glycoprotein with four disulfide bonds (C1-C5, C2-C6, C3-C7, C4-C8); also called SOST; recombinant human sclerostin
T1 sequence: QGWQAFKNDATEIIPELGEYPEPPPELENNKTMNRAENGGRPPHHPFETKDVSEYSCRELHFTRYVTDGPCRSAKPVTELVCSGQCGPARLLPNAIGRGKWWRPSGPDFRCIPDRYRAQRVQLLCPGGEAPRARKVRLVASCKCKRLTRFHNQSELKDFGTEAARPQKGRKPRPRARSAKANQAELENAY


How the values were obtained:
[1] = target: T1, human sclerostin, mature form (signal …); experiment: KinExA solution equilibrium binding, human sclerostin-coated beads
Method: The affinity of several anti-sclerostin antibodies to human sclerostin was assessed by a solution equilibrium binding analysis using KinExA® 3000 (Sapidyne Instruments Inc., Boise, Id.). For these measurements, Reacti-Gel 6× beads (Pierce, Rockford, Ill.) were pre-coated with 40 μg/ml human sclerostin in 50 mM Na2CO3, pH 9.6 at 4° C. overnight. The beads were then blocked with 1 mg/ml BSA in 1M Tris-HCl, pH 7.5 at 4° C. for two hours. 10 pM, 30 pM, or 100 pM of the antibody was mixed with various concentrations of human sclerostin, ranging in concentration from 0.1 pM to 1 nM, and equilibrated at room temperature for over 8 hours in PBS with 0.1 mg/ml BSA and 0.005% P20. The mixtures were then passed over the human sclerostin coated beads. The amount of bead-bound anti-sclerostin antibody was quantified using fluorescent Cy5-labeled goat anti-mouse-IgG or fluorescent Cy5-labeled goat anti-human-IgG antibodies (Jackson Immuno Research, West Grove, Pa.) for the mouse or human antibody samples, respectively. The amount of fluorescent signal measured was proportional to the concentration of free anti-sclerostin antibody in each reaction mixture at equilibrium. The dissociation equilibrium constant (KD) was obtained from nonlinear regression of the competition curves using a n-curve one-site homogeneous binding model provided in the KinExA Pro software.

[2] = target: T1, human sclerostin, mature form (signal …); experiment: Biacore 3000; antibody captured by anti-human IgG Fc, sclerostin as analyte
Method: The assay format was capture of the anti-sclerostin antibody by immobilised anti-human IgG-Fc then titration of the sclerostin over the captured surface. An example of the procedure is given below: BIA (Biamolecular Interaction Analysis) was performed using a BIAcore 3000 (BIAcore AB). Affinipure F(ab′)₂ Fragment goat anti-human IgG, Fc fragment specific (Jackson
ImmunoResearch) was immobilised on a CM5 Sensor Chip via amine coupling chemistry to a capture level of ≈4000 response units (RUs). HBS-EP buffer (10 mM HEPES pH 7.4, 0.15 M NaCl, 3 mM EDTA, 0.005% Surfactant P20, BIAcore AB) containing 1 mg/mL CM-Dextran was used as the running buffer with a flow rate of 10 μl/min. A 10 μl injection of the anti-sclerostin antibody at ˜5 μg/mL was used for capture by the immobilised anti-human IgG-Fc. Antibody capture levels were typically 100-200 RU. Sclerostin was titrated over the captured anti-sclerostin antibody at various concentrations at a flow rate of 30 μL/min. The surface was regenerated by two 10 μL injections of 40 mM HCl, followed by a 5 μL injection of 5 mM NaOH at a flowrate of 10 μL/min.
Background subtraction binding curves were analysed using the BIAevaluation software (version 3.2) following standard procedures. Kinetic parameters were determined from the fitting algorithm.

[3] = target: T1, human sclerostin, mature form (signal …); experiment: Biacore cross-blocking, human sclerostin on CM5 chip; mixed with competitor Ab-4, each 1.3 uM binding sites
Method: (§1) Human sclerostin was coupled to a CM5 Biacore chip using standard amine coupling chemistry to generate a sclerostin coated surface. 300 resonance units of sclerostin were coupled to the surface.
(§2) 20 μL of the test mixture was passed over the sclerostin-coated chip at a flow rate of 10 μL/min and the amount of binding recorded. The chip was then treated with two 60 second pulses of 30 mM HCl to remove all of the bound antibody. A solution containing only one of the antibodies of the test mixture (at 1.3 μM in the same buffer as the test mixture on a binding site basis) was then passed over the chip in the same manner as the test mixture and the amount of binding recorded. The chip was again treated to remove all of the bound antibody and finally a solution containing the other antibody from the test mixture alone (at 1.3 μM in the same buffer as the test mixture on a binding site basis) was passed over the chip and the amount of binding recorded.
(§3) The table below show the results from cross-blocking assays on a range of different antibodies. The values in each square of the table represent the amount of binding (in RU) seen when the antibodies (at 1.3 μM on a binding site basis) or buffer indicated in the top row of the table were mixed with the antibodies (at 1.3 uM on a binding site basis) or buffer indicated in the first column of the table.

[4] = target: T1, human sclerostin, mature form (signal …); experiment: Biacore cross-blocking, human sclerostin on CM5 chip; mixed with competitor Ab-A, each 1.3 uM binding sites
Method: as §1, §2, §3

[5] = target: T1, human sclerostin, mature form (signal …); experiment: Biacore cross-blocking, human sclerostin on CM5 chip; mixed with competitor Ab-13, each 1.3 uM binding sites
Method: as §1
(§4) The antibodies to be tested were diluted to a concentration of 200 ug/ml in HBS-EP buffer (being 10 mM HEPES pH 7.4, 150 mM NaCl, 3 mM EDTA, 0.005% (v/v) Surfactant P20) and then mixed in a one to one molar ratio (on a binding site basis) to generate the test mixture. This test mixture thus contained each antibody at a concentration of 100 ug/ml (1.3 um on a binding site basis). Separate solutions containing each of the antibodies in the test mix alone were also prepared. These solutions contained the individual antibodies in HBS-EP buffer at a concentration of 100 ug/ml (1.3 um on a binding site basis).
as §2

[6] = target: T1, human sclerostin, mature form (signal …); experiment: Biacore cross-blocking, human sclerostin on CM5 chip; mixed with competitor Ab-19, each 1.3 uM binding sites
Method: as §1, §4, §2

[7] = target: T1, human sclerostin, mature form (signal …); experiment: Biacore cross-blocking on human sclerostin; mixture with competitor Ab-19, mean RU against the sum of each alone
Method: as §1, §4, §2

[8] = target: T1, human sclerostin, mature form (signal …); experiment: Biacore cross-blocking, human sclerostin on CM5 chip; mixed with competitor Ab-3, each 1.3 uM binding sites
Method: as §1, §2, §3

[9] = target: T1, human sclerostin, mature form (signal …); experiment: Biacore cross-blocking on human sclerostin; mixture with competitor Ab-3, mean RU against the sum of each alone
Method: as §1, §4, §2

Row | Binder | Kd [1] [pM] | Kd [2] [pM] | koff [2] [s⁻¹] | kon [2] [M⁻¹ s⁻¹] | amount of binding (RU) [3] [RU] | amount of binding (RU) [4] [RU] | amount of binding (RU) [5] [RU] | amount of binding (RU) [6] [RU] | percentage of the theoretical binding [7] [%] | amount of binding (RU) [8] [RU] | percentage of the theoretical binding [9] [%]
1 | Antibody 4 (antibody, mouse IgG1, kappa, V domains shown, Mature LC and HC; Parent of humanized Ab-5; also called Ab-4) VH: EVQLQQSGPELMKPGASVKMSCKASGYTFTDYNMHWVKQNQGKTLEWIGEINPNSGGAGYNQKFKGKATLTVDKSSTTAYMELRSLTSEDSAVYYCARLGYDDIYDDWYFDVWGAGTTVTVSS VL: DIQMTQITSSLSASLGDRVSISCRASQDISNYLNWYQQKPDGTFKLLIFYTSRLLSGVPSRFSGSGSGTDYSLTIYNLEQEDFATYFCQQGDTLPYTFGGGTKLEIKR | 3 | – | – | – | – | 860 | 1020 | 822 | 60.8 | 869 | 85.4
2 | Antibody 13 (antibody, mouse IgG1, kappa, V domains shown, Mature LC and HC; Parent of humanized Ab-14; also called Ab-13) VH: EVQLQQSGPELVKPGASVKMSCKASGYTFTDYYMNWVKQSHGESLEWIGDINPYNDDTTYNHKFKGKATLTVDKSSNTAYMQLNSLTSEDSAVYYCARETAVITTNAMDYWGQGTSVTVSS VL: QIVLTQSPAIMSASPGEKVTMTCRASSSVTSSYLNWYQQKPGSSPKLWIYSTSNLASGVPARFSGSGSGTSYSLTISSVEAEDAATYYCQQYDFFPSTFGGGTKLEIKR | 0.6 | – | – | – | 1010 | 1110 | – | 1040 | 97 | 432 | 58
3 | Antibody 19 (antibody, V domains shown, the signal peptide is not part of the antibody as tested; Parent of humanized Ab-20 and Ab-23; also called Ab-19) VH: EVQLQQSGPELVKPGASVKMSCKASGFTFTDYIMHWVKQKPGQGLEWIGYINPYNDDTEYNEKFKGKATLTSDKSSSTAYMDLSSLTSEGSAVYYCARSIYYYDAPFAYWGQGTLVTVSS VL: DIQMTQTTSSLSASLGDRVNISCRASQDISSYLNWYQQKPDGTVKLLIYSTSRLNSGVPSRFSGSGSGTDYSLTISNLAQEDIATYFCQQDIKHPTFGGGTKLELKR | 3 | – | – | – | 789 | 863 | 1020 | – | – | 892 | –

Now from value to binder:

Row | Kd [1] [pM] | Kd [2] [pM] | koff [2] [s⁻¹] | kon [2] [M⁻¹ s⁻¹] | amount of binding (RU) [3] [RU] | amount of binding (RU) [4] [RU] | amount of binding (RU) [5] [RU] | amount of binding (RU) [6] [RU] | percentage of the theoretical binding [7] [%] | amount of binding (RU) [8] [RU] | percentage of the theoretical binding [9] [%] | Binder
4 | 1 | 1.48 | 4.87e-06 | 3.3e+06 | – | – | – | – | – | – | – | Antibody 14 (antibody, human IgG2, kappa, V domains shown, Humanized Ab-13; Mature LC and HC; also called Ab-14; Ab14) VH: EVQLVQSGAEVKKPGASVKVSCKASGYTFTDYYMNWVRQAPGQRLEWMGDINPYNDDTTYNHKFKGRVTITRDTSASTAYMELSSLRSEDTAVYYCARETAVITTNAMDYWGQGTTVTVSS VL: DIQLTQSPSFLSASVGDRVTITCRASSSVTSSYLNWYQQKPGKAPKLLIYSTSNLASGVPSRFSGSGSGTEFTLTISSLQPEDFATYYCQQYDFFPSTFGGGTKVEIKR
5 | – | – | – | – | 845 | 952 | 428 | 896 | 94.4 | – | – | Antibody 3 (antibody, mouse IgG1, kappa, Mature LC and HC (signal peptide removed); Parent of humanized Ab-15; also called Ab-3) light: EIVLTQSPALMAASPGEKVTITCSVSSTISSNHLHWFQQKSDTSPKPWIYGTSNLASGVPVRFSGSGSGTSYSLTISSMEAEDAATYYCQQWSSYPLTFGAGTKLELRRADAAPTVSIFPPSSEQLTSGGASVVCFLNNFYPKDINVKWKIDGSERQNGVLNSWTDQDSKDSTYSMSSTLTLTKDEYERHNSYTCEATHKTSTSPIVKSFNRNEC heavy: EVQLQQSGAELVRPGALVKLSCTASDFNIKDFYLHWMRQRPEQGLDWIGRIDPENGDTLYDPKFQDKATLTTDTSSNTAYLQLSGLTSETTAVYYCSREADYFHDGTSYWYFDVWGAGTTITVSSAKTTPPSVYPLAPGSAAQTNSMVTLGCLVKGYFPEPVTVTWNSGSLSSGVHTFPAVLQSDLYTLSSSVTVPSSTWPSETVTCNVAHPASSTKVDKKIVPRDCGCKPCICTVPEVSSVFIFPPKPKDVLTITLTPKVTCVVVDISKDDPEVQFSWFVDDVEVHTAQTQPREEQFNSTFRSVSELPIMHQDWLNGKEFKCRVNSAAFPAPIEKTISKTKGRPKAPQVYTIPPPKEQMAKDKVSLTCMITDFFPEDITVEWQWNGQPAENYKNTQPIMDTDGSYFIYSKLNVQKSNWEAGNTFTCSVLHEGLHNHHTEKSLSHSPGK
6 | 4 | – | – | – | – | – | – | – | – | – | – | Antibody 23 (antibody, human IgG2, kappa, Humanized Ab-19, IgG2 version; Mature LC and HC; also called Ab-23) light: not shown heavy: EVQLVQSGAEVKKPGSSVKVSCKASGFTFTDYIMHWVRQAPGQGLEWMGYINPYNDDTEYNEKFKGRVTITADKSTSTAYMELSSLRSEDTAVYYCARSIYYYDAPFAYWGQGTLVTVSSASTKGPSVFPLAPCSRSTSESTAALGCLVKDYFPEPVTVSWNSGALTSGVHTFPAVLQSSGLYSLSSVVTVPSSNFGTQTYTCNVDHKPSNTKVDKTVERKCCVECPPCPAPPVAGPSVFLFPPKPKDTLMISRTPEVTCVVVDVSHEDPEVQFNWYVDGVEVHNAKTKPREEQFNSTFRVVSVLTVVHQDWLNGKEYKCKVSNKGLPAPIEKTISKTKGQPREPQVYTLPPSREEMTKNQVSLTCLVKGFYPSDIAVEWESNGQPENNYKTTPPMLDSDGSFFLYSKLTVDKSRWQQGNVFSCSVMHEALHNHYTQKSLSLSPGK
7 | 6 | 97.8 | 0.000174 | 1.78e+06 | – | – | – | – | – | – | – | Antibody 5 (antibody, human IgG2, kappa, V domains shown, Humanized Ab-4; Mature LC and HC; also called Ab-5) VH: EVQLVQSGAEVKKPGASVKVSCKASGYTFTDYNMHWVRQAPGQGLEWMGEINPNSGGAGYNQKFKGRVTMTTDTSTSTAYMELRSLRSDDTAVYYCARLGYDDIYDDWYFDVWGQGTTVTVSS VL: DIQMTQSPSSLSASVGDRVTITCRASQDISNYLNWYQQKPGKAPKLLIYYTSRLLSGVPSRFSGSGSGTDFTLTISSLQPEDFATYYCQQGDTLPYTFGGGTKVEIKR
